# Experimental data from the supplement of paper PMC11908140.
# B1: library; numbered along this chain (parent)
# chain: MRKPRAAVGSGHRKQAASQEGRQKHAKNNSQAKPSACDGLARQPEEVVLQASVSSYHLFRDVAEVTAFRGSLLSWYDQEKRDLPWRRRAEDEMDLDRRAYAVWVSEVMLQQTQVATVINYYTGWMQKWPTLQDLASASLEEVNQLWAGLGYYSRGRRLQEGARKVVEELGGHMPRTAETLQQLLPGVGRYTAGAIASIAFGQATGVVDGNVARVLCRVRAIGADPSSTLVSQQLWGLAQQLVDPARPGDFNQAAMELGATVCTPQRPLCSQCPVESLCRARQRVEQEQLLASGSLSGSPDVEECAPNTGQCHLCLPPSEPWDQTLGVVNFPRKASRKPPREESSATCVLEQPGALGAQILLVQRPNSGLLAGLWEFPSVTWEPSEQLQRKALLQELQRWAGPLPATHLRHLGEVVHTFSHIKLTYQVYGLALEGQTPVTTVPPGARWLTQEEFHTAAVSTAMKKVFRVYQGQQPGTCMGSKRSQVSSPCSRKKPRMGQQVLDNFFRSHISTDAHSLNSAAQ
# Variants of: B1
# Test: 8OG:A repair function score (normalized; synonymous = 0, nonsense = -1) (normalized log-likelihood score); higher = more repair activity (WT-like)
# Details: with 8OG:A DNA repair reporter (GFP) in HEK-293 MUTYH KO cells
# Procedure, shortened: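 Lentiviral MUTYH cDNA NNN codon-scan libraries in HEK-293 MUTYH knockout cells (10 pg/ml doxycycline) were co-transfected with an 8OG:A GFP repair reporter plus mCherry. At 72 h, viable mCherry+ cells were sorted into GFP+ (repair) and GFP− bins, three replicates per tile, then tile amplicons were sequenced. Per-tile Rosace fitness scores became a normalized repair function score anchored on synonymous and nonsense distributions. Synonymous medians were set to 0 and nonsense to -1; variants under 300 counts per million at the start were removed.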
row,Variant,8OG:A repair function score
1,MRKPRAAVGSGHRKQAASQEGRQKHAKNNSQAKPSACDGLARQPEEVVLQASVSSYHLFRDVAEVTAFRGSLLSWYDQEKRDLPWRRRAEDEMDLDRRAYAVWVSEVMLQQTQVATVINYYTGWMQKWPTLQDLASASLEEVNQLWAGLGYYSRGRRLQEGARKVVEELGGHMPRTAETLQQLLPGVGRYTAGAIASIAFGQATGVVDGNVARVLCRVRAIGADPSSTLVSQQLWGLAQQLVDPARPGDFNQAAMELGATVCTPQRPLCSQCPVESLCRARQRVEQEQLLASGSLSGSPDVEECAPNTGQCHLCLPPSEPWDQTLGVVNFPRKASRKPPREESSATCVLEQPGALGAQILLVQRPNSGLLAGLWEFPSVTWEPSEQLQRKALLQELQRWAGPLPATHLRHLGEVVHTFSHIKLTYQVYGLALEGQTPVTTVPPGARWLTQEEFHTAAVSTAMKKVFRVYQGQQPGTCMGSARSQVSSPCSRKKPRMGQQVLDNFFRSHISTDAHSLNSAAQ [K481A],-0.00494
2,MRKPRAAVGSGHRKQAASQEGRQKHAKNNSQAKPSACDGLARQPEEVVLQASVSSYHLFRDVAEVTAFRGSLLSWYDQEKRDLPWRRRAEDEMDLDRRAYAVWVSEVMLQQTQVATVINYYTGWMQKWPTLQDLASASLEEVNQLWAGLGYYSRGRRLQEGARKVVEELGGHMPRTAETLQQLLPGVGRYTAGAIASIAFGQATGVVDGNVARVLCRVRAIGADPSSTLVSQQLWGLAQQLVDPARPGDFNQAAMELGATVCTPQRPLCSQCPVESLCRARQRVEQEQLLASGSLSGSPDVEECAPNTGQCHLCLPPSEPWDQTLGVVNFPRKASRKPPREESSATCVLEQPGALGAQILLVQRPNSGLLAGLWEFPSVTWEPSEQLQRKALLQELQRWAGPLPATHLRHLGEVVHTFSHIKLTYQVYGLALEGQTPVTTVPPGARWLTQEEFHTAAVSTAMKKVFRVYQGQQPGTCMGSHRSQVSSPCSRKKPRMGQQVLDNFFRSHISTDAHSLNSAAQ [K481H],-0.0426
3,MRKPRAAVGSGHRKQAASQEGRQKHAKNNSQAKPSACDGLARQPEEVVLQASVSSYHLFRDVAEVTAFRGSLLSWYDQEKRDLPWRRRAEDEMDLDRRAYAVWVSEVMLQQTQVATVINYYTGWMQKWPTLQDLASASLEEVNQLWAGLGYYSRGRRLQEGARKVVEELGGHMPRTAETLQQLLPGVGRYTAGAIASIAFGQATGVVDGNVARVLCRVRAIGADPSSTLVSQQLWGLAQQLVDPARPGDFNQAAMELGATVCTPQRPLCSQCPVESLCRARQRVEQEQLLASGSLSGSPDVEECAPNTGQCHLCLPPSEPWDQTLGVVNFPRKASRKPPREESSATCVLEQPGALGAQILLVQRPNSGLLAGLWEFPSVTWEPSEQLQRKALLQELQRWAGPLPATHLRHLGEVVHTFSHIKLTYQVYGLALEGQTPVTTVPPGARWLTQEEFHTAAVSTAMKKVFRVYQGQQPGTCMGSDRSQVSSPCSRKKPRMGQQVLDNFFRSHISTDAHSLNSAAQ [K481D],0.016
4,MRKPRAAVGSGHRKQAASQEGRQKHAKNNSQAKPSACDGLARQPEEVVLQASVSSYHLFRDVAEVTAFRGSLLSWYDQEKRDLPWRRRAEDEMDLDRRAYAVWVSEVMLQQTQVATVINYYTGWMQKWPTLQDLASASLEEVNQLWAGLGYYSRGRRLQEGARKVVEELGGHMPRTAETLQQLLPGVGRYTAGAIASIAFGQATGVVDGNVARVLCRVRAIGADPSSTLVSQQLWGLAQQLVDPARPGDFNQAAMELGATVCTPQRPLCSQCPVESLCRARQRVEQEQLLASGSLSGSPDVEECAPNTGQCHLCLPPSEPWDQTLGVVNFPRKASRKPPREESSATCVLEQPGALGAQILLVQRPNSGLLAGLWEFPSVTWEPSEQLQRKALLQELQRWAGPLPATHLRHLGEVVHTFSHIKLTYQVYGLALEGQTPVTTVPPGARWLTQEEFHTAAVSTAMKKVFRVYQGQQPGTCMGSCRSQVSSPCSRKKPRMGQQVLDNFFRSHISTDAHSLNSAAQ [K481C],0.0191
5,MRKPRAAVGSGHRKQAASQEGRQKHAKNNSQAKPSACDGLARQPEEVVLQASVSSYHLFRDVAEVTAFRGSLLSWYDQEKRDLPWRRRAEDEMDLDRRAYAVWVSEVMLQQTQVATVINYYTGWMQKWPTLQDLASASLEEVNQLWAGLGYYSRGRRLQEGARKVVEELGGHMPRTAETLQQLLPGVGRYTAGAIASIAFGQATGVVDGNVARVLCRVRAIGADPSSTLVSQQLWGLAQQLVDPARPGDFNQAAMELGATVCTPQRPLCSQCPVESLCRARQRVEQEQLLASGSLSGSPDVEECAPNTGQCHLCLPPSEPWDQTLGVVNFPRKASRKPPREESSATCVLEQPGALGAQILLVQRPNSGLLAGLWEFPSVTWEPSEQLQRKALLQELQRWAGPLPATHLRHLGEVVHTFSHIKLTYQVYGLALEGQTPVTTVPPGARWLTQEEFHTAAVSTAMKKVFRVYQGQQPGTCMGSGRSQVSSPCSRKKPRMGQQVLDNFFRSHISTDAHSLNSAAQ [K481G],-0.0136
6,MRKPRAAVGSGHRKQAASQEGRQKHAKNNSQAKPSACDGLARQPEEVVLQASVSSYHLFRDVAEVTAFRGSLLSWYDQEKRDLPWRRRAEDEMDLDRRAYAVWVSEVMLQQTQVATVINYYTGWMQKWPTLQDLASASLEEVNQLWAGLGYYSRGRRLQEGARKVVEELGGHMPRTAETLQQLLPGVGRYTAGAIASIAFGQATGVVDGNVARVLCRVRAIGADPSSTLVSQQLWGLAQQLVDPARPGDFNQAAMELGATVCTPQRPLCSQCPVESLCRARQRVEQEQLLASGSLSGSPDVEECAPNTGQCHLCLPPSEPWDQTLGVVNFPRKASRKPPREESSATCVLEQPGALGAQILLVQRPNSGLLAGLWEFPSVTWEPSEQLQRKALLQELQRWAGPLPATHLRHLGEVVHTFSHIKLTYQVYGLALEGQTPVTTVPPGARWLTQEEFHTAAVSTAMKKVFRVYQGQQPGTCMGSERSQVSSPCSRKKPRMGQQVLDNFFRSHISTDAHSLNSAAQ [K481E],-0.00514
